The text below walks through data of paper PMC314469, “Protein Interaction Networks by Proteome Peptide Scanning” (PLoS Biology, 2004).

What all share (assay): SPOT array
For assay [1], the target named is T1, Boi1 SH3 (BOI1_YEAST), P38041.
T1 chain: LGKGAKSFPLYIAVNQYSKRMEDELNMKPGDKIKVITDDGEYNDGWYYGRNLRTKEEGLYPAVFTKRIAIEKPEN

Assay [2] has as its target T2, Boi2 SH3 (BOI2_YEAST), P39969.
T2 chain: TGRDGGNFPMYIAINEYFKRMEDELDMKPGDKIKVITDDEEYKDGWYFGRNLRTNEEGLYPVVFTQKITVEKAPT

Assay [3] has as its target T3, Rvs167 SH3 (RV167_YEAST), P39743.
T3 chain: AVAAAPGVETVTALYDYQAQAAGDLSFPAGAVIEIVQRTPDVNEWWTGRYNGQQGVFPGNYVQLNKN

Assay [4] has as its target T4, Yfr024 SH3 (LSB3_YEAST), P43603.
T4 chain: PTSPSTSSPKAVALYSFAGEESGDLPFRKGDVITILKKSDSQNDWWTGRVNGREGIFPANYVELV

The target in assay [5] is T5, Yhr016c SH3 (YSC84_YEAST), P32793.
T5 chain: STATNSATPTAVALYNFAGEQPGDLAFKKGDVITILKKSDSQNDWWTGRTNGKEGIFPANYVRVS

B1: YNL025C 151-164 (peptide)
chain: EFIPPDPTKVTEFE
B1: the normalised SPOT signal, Boehringer light units (BLU); mean over the file's lines of this peptide in assay [1] was found to be 98; in assay [2], 39.5; in assay [3], 16.4; in assay [4] it was 26.8; in assay [5] it was 53.3.

B2: YER166W 783-796 (peptide)
chain: EANPDNPKKLDLKA
Take B2: the normalised SPOT signal, Boehringer light units (BLU); mean over the file's lines of this peptide stood at 79.1 in assay [1]; 7.6 in assay [2]; 45.6 in assay [3]; 257 in assay [4]; 247 in assay [5].

B3: YDR322W 274-287 (peptide)
chain: DYLPPVPEKNAGKQ
On to B3, for which the normalised SPOT signal, Boehringer light units (BLU); mean over the file's lines of this peptide came out at 47.4 in assay [1]; 91.7 in assay [2]; 42.3 in assay [3]; 681 in assay [4]; 198 in assay [5].

B4: YLL021W 583-596 (peptide)
chain: EESPVKPLKITQKA
Turning to B4, the normalised SPOT signal, Boehringer light units (BLU); mean over the file's lines of this peptide turned out to be 59.6 in assay [1]; 40.1 in assay [2]; 51.1 in assay [3]; 290 in assay [4]; 51.3 in assay [5].

B5: YOL070C 274-287 (peptide)
chain: DYNPTIPPRSKDRP
As to B5, the normalised SPOT signal, Boehringer light units (BLU); mean over the file's lines of this peptide turned out to be 35500 in assay [1]; 11300 in assay [2]; 3120 in assay [3]; 6750 in assay [4]; 2400 in assay [5].

B6: YJL204C 669-682 (peptide)
chain: DYNPPPPSRNSPIR
As for B6, the normalised SPOT signal, Boehringer light units (BLU); mean over the file's lines of this peptide in assay [1] turned out to be 194; in assay [2], 31.1; in assay [3] it was 9.9; in assay [4], 874; in assay [5] it was 323.

B7: YOR042W 337-350 (peptide)
chain: DVPPQLPTRTKSGE
As for B7, the normalised SPOT signal, Boehringer light units (BLU); mean over the file's lines of this peptide in assay [1] is 76.3; in assay [2] it was 61.9; in assay [3] it was 23600; in assay [4] it was 27900; in assay [5], 73200.

B8: YPR171W 203-216 (peptide)
chain: EEKPLLPTRPNKAE
For the molecule B8, the normalised SPOT signal, Boehringer light units (BLU); mean over the file's lines of this peptide is 0 in assay [1]; 54.8 in assay [2]; 6410 in assay [3]; 46300 in assay [4]; 62400 in assay [5].

B9: YJR110W 189-202 (peptide)
chain: EFSPTYPSKLFVPR
Consider B9, for which the normalised SPOT signal, Boehringer light units (BLU); mean over the file's lines of this peptide worked out at 53.2 in assay [1]; 33.3 in assay [2]; 69.9 in assay [3]; 796 in assay [4]; 143 in assay [5].

B10: YDR103W 109-122 (peptide)
chain: DYLPQHPHRTSSLP
As to B10, the normalised SPOT signal, Boehringer light units (BLU); mean over the file's lines of this peptide in assay [1] worked out at 17.6; in assay [2], 33.4; in assay [3], 109; in assay [4] it was 206; in assay [5] it was 172.

B11: YER081W 311-324 (peptide)
chain: DVYPHEPAKNGEGS
For B11, the normalised SPOT signal, Boehringer light units (BLU); mean over the file's lines of this peptide in assay [1] is 98.3; in assay [2], 37.8; in assay [3], 44.3; in assay [4], 125; in assay [5], 223.

B12: YGL125W 158-171 (peptide)
chain: ESHPELPNKDVKLD
Turning to B12, the normalised SPOT signal, Boehringer light units (BLU); mean over the file's lines of this peptide in assay [1] worked out at 128; in assay [2] it was 22.1; in assay [3] it was 25.4; in assay [4] it was 139; in assay [5] it was 75.4.

B13: YLR238W 11-24 (peptide)
chain: EEHPSSPGKKQITY
Regarding B13, the normalised SPOT signal, Boehringer light units (BLU); mean over the file's lines of this peptide was 84 in assay [1]; 17.6 in assay [2]; 5.7 in assay [3]; 44.3 in assay [4]; 24.5 in assay [5].

B14: YAR014C 249-262 (peptide)
chain: DYQPLSPPRELDPD
B14: the normalised SPOT signal, Boehringer light units (BLU); mean over the file's lines of this peptide in assay [1] worked out at 122; in assay [2] it was 8.8; in assay [3], 322; in assay [4] it was 506; in assay [5], 313.

B15: YOR066W 225-238 (peptide)
chain: EAPPAKPSRSDIID
For the molecule B15, the normalised SPOT signal, Boehringer light units (BLU); mean over the file's lines of this peptide in assay [1] turned out to be 70.5; in assay [2], 54.9; in assay [3], 31.9; in assay [4] it was 3400; in assay [5], 2010.

B16: YCR088W 505-518 (peptide)
chain: EAAPQLPSRSSAAP
Turning to B16, the normalised SPOT signal, Boehringer light units (BLU); mean over the file's lines of this peptide was found to be 102 in assay [1]; 20.3 in assay [2]; 23100 in assay [3]; 55000 in assay [4]; 93000 in assay [5].

B17: YOR042W 80-93 (peptide)
chain: EEHPPLPARRKSEE
As to B17, the normalised SPOT signal, Boehringer light units (BLU); mean over the file's lines of this peptide in assay [1] is 619; in assay [2], 53.3; in assay [3], 26300; in assay [4], 31200; in assay [5], 72200.

B18: YJR137C 1229-1242 (peptide)
chain: EDTPDLPQKTGIRK
On to B18, for which the normalised SPOT signal, Boehringer light units (BLU); mean over the file's lines of this peptide in assay [1] is 24.7; in assay [2], 18; in assay [3] it was 14.6; in assay [4], 5620; in assay [5] it was 100.

B19: YLR113W 212-225 (peptide)
chain: EGKPLFPGKDHVHQ
Take B19: the normalised SPOT signal, Boehringer light units (BLU); mean over the file's lines of this peptide in assay [1] came to 89.1; in assay [2] it was 11; in assay [3] it was 38.5; in assay [4], 5.2; in assay [5], 91.1.
